Assay results taken from patent publication US20200199204A1.

How the values were obtained:
Assay in all cases: cell-based or functional assay
[1] = biological target: HIV-1 Env of DU422.01 (HIV-1)
[2] = biological target: HIV-1 Env of RW020.2 (HIV-1)
[3] = biological target: HIV-1 Env of RHPA.7 (HIV-1)
[4] = biological target: HIV-1 Env of UG037.8 (HIV-1)
[5] = biological target: HIV-1 Env of 0260.v5.c36 (HIV-1)
[6] = biological target: HIV-1 Env of CAP45.G3 (HIV-1)
[7] = biological target: HIV-1 Env of ZM249.1 (HIV-1)
[8] = biological target: HIV-1 Env of TRJO.58 (HIV-1)
[9] = biological target: HIV-1 Env of WITO.33 (HIV-1)
[10] = biological target: HIV-1 Env of TH976.17 (HIV-1)
[11] = biological target: HIV-1 Env of ZM109.4 (HIV-1)
[12] = biological target: HIV-1 Env of KER2018.11 (HIV-1)
[13] = biological target: HIV-1 Env of CAP256.PI (HIV-1)
[14] = biological target: HIV-1 Env of MB539.2B7 (HIV-1)
[15] = biological target: HIV-1 Env of C1080.c3 (HIV-1)
[16] = biological target: HIV-1 Env of Q259.d2.17 (HIV-1)
[17] = biological target: HIV-1 Env of CAP256.SU (HIV-1)
[18] = biological target: HIV-1 Env of Q23.17 (HIV-1)
[19] = biological target: HIV-1 Env of 96ZM651.02 (HIV-1)
[20] = biological target: HIV-1 Env of CAAN.A2 (HIV-1)
[21] = biological target: HIV-1 Env of 6535.3 (HIV-1)
[22] = biological target: HIV-1 Env of ZM233.6 (HIV-1)
[23] = biological target: HIV-1 Env of ZM135.10a (HIV-1)
[24] = biological target: HIV-1 Env of CAP210.E8 (HIV-1)
[25] = biological target: HIV-1 Env of AC10.29 (HIV-1)
[26] = biological target: HIV-1 Env of Q769.d22 (HIV-1)
[27] = biological target: HIV-1 Env of ZM214.15 (HIV-1)
[28] = biological target: HIV-1 Env of Q461.e2 (HIV-1)
[29] = biological target: HIV-1 Env of CM244.ec1 (HIV-1)
[30] = biological target: HIV-1 Env of Q168.a2 (HIV-1)
[31] = biological target: HIV-1 Env of REJO.67 (HIV-1)
[32] = biological target: HIV-1 Env of ZM53.12 (HIV-1)
[33] = biological target: HIV-1 Env of ZM197.7 (HIV-1)
[34] = biological target: HIV-1 Env of 6405.v4.c34 (HIV-1)
[35] = biological target: HIV-1 Env of SC422.8 (HIV-1)
[36] = biological target: HIV-1 Env of CAP244.D3 (HIV-1)
[37] = biological target: HIV-1 Env of TRO.11 (HIV-1)
[38] = biological target: HIV-1 Env of MB201 (HIV-1)
[39] = biological target: HIV-1 Env of Q842.d12 (HIV-1)
[40] = biological target: HIV-1 Env of DU156.12 (HIV-1)
[41] = biological target: HIV-1 Env of CNE3 (HIV-1)
[42] = biological target: HIV-1 Env of QH0692.42 (HIV-1)
[43] = biological target: HIV-1 Env of DU172.17 (HIV-1)
[44] = biological target: HIV-1 Env of THRO.18 (HIV-1)
[45] = biological target: HIV-1 Env of 3016.V5.c36 (HIV-1)
[46] = biological target: HIV-1 Env of BG505.w6m (HIV-1)
[47] = biological target: HIV-1 Env of KER2008.12 (HIV-1)
[48] = biological target: HIV-1 Env of PVO.04 (HIV-1)

CAP256-VRC26.28 (antibody) was tested, and the IC50 (neutralization, TZM-bl) [1] was 0.075 µg/mL, the IC50 (neutralization, TZM-bl) [2] was > 50 µg/mL and the IC50 (neutralization, TZM-bl) [3] was > 50 µg/mL. The IC50 (neutralization, TZM-bl) [4] was > 50 µg/mL, the IC50 (neutralization, TZM-bl) [5] was > 50 µg/mL and the IC50 (neutralization, TZM-bl) [6] was 0.016 µg/mL. For the same substance, the IC50 (neutralization, TZM-bl) [7] was 0.082 µg/mL, the IC50 (neutralization, TZM-bl) [8] was > 50 µg/mL and the IC50 (neutralization, TZM-bl) [9] was > 50 µg/mL. The IC50 (neutralization, TZM-bl) [10] was > 50 µg/mL, the IC50 (neutralization, TZM-bl) [11] was > 50 µg/mL and the IC50 (neutralization, TZM-bl) [12] was < 0.0006 µg/mL. For the same substance, the IC50 (neutralization, TZM-bl) [13] was > 50 µg/mL, the IC50 (neutralization, TZM-bl) [14] was 29.4 µg/mL and the IC50 (neutralization, TZM-bl) [15] was 0.012 µg/mL. For the same substance, the IC50 (neutralization, TZM-bl) [16] was 0.012 µg/mL, the IC50 (neutralization, TZM-bl) [17] was < 0.0006 µg/mL and the IC50 (neutralization, TZM-bl) [18] was 0.005 µg/mL. For the same substance, the IC50 (neutralization, TZM-bl) [19] was > 50 µg/mL, the IC50 (neutralization, TZM-bl) [20] was > 50 µg/mL and the IC50 (neutralization, TZM-bl) [21] was > 50 µg/mL. The IC50 (neutralization, TZM-bl) [22] was 0.002 µg/mL, the IC50 (neutralization, TZM-bl) [23] was > 50 µg/mL and the IC50 (neutralization, TZM-bl) [24] was < 0.0006 µg/mL. For the same substance, the IC50 (neutralization, TZM-bl) [25] was > 50 µg/mL, the IC50 (neutralization, TZM-bl) [26] was > 50 µg/mL and the IC50 (neutralization, TZM-bl) [27] was 6.85 µg/mL. For the same substance, the IC50 (neutralization, TZM-bl) [28] was 1.59 µg/mL, the IC50 (neutralization, TZM-bl) [29] was 0.64 µg/mL and the IC50 (neutralization, TZM-bl) [30] was 0.003 µg/mL. For the same substance, the IC50 (neutralization, TZM-bl) [31] was > 50 µg/mL, the IC50 (neutralization, TZM-bl) [32] was < 0.0006 µg/mL and the IC50 (neutralization, TZM-bl) [33] was 0.193 µg/mL. The IC50 (neutralization, TZM-bl) [34] was > 50 µg/mL, the IC50 (neutralization, TZM-bl) [35] was > 50 µg/mL and the IC50 (neutralization, TZM-bl) [36] was > 50 µg/mL. The IC50 (neutralization, TZM-bl) [37] was > 50 µg/mL, the IC50 (neutralization, TZM-bl) [38] was > 50 µg/mL and the IC50 (neutralization, TZM-bl) [39] was 0.779 µg/mL. The IC50 (neutralization, TZM-bl) [40] was 0.171 µg/mL, the IC50 (neutralization, TZM-bl) [41] was > 50 µg/mL and the IC50 (neutralization, TZM-bl) [42] was > 50 µg/mL. The IC50 (neutralization, TZM-bl) [43] was > 50 µg/mL, the IC50 (neutralization, TZM-bl) [44] was > 50 µg/mL and the IC50 (neutralization, TZM-bl) [45] was 0.008 µg/mL. The IC50 (neutralization, TZM-bl) [46] was 0.044 µg/mL, the IC50 (neutralization, TZM-bl) [47] was 0.76 µg/mL and the IC50 (neutralization, TZM-bl) [48] was 6 µg/mL.
